Experimental data published in patent US20260201008A1, “SECRETIN-DERIVED GLP1R SELECTIVE AGONISTS” (GUBRA A/S, priority 2023, published 2026).
Numbered stars: 1 amine (or outer) side, 2 acyl side, 3 side chain; on linkers, the order of the positions; unused ones are H or OH. Square brackets hold non-standard residues; d marks the D form. Side chains are listed from the residue outwards. Ends that are not written are not given here. * marks the point of attachment. C20 diacid = O=C(O)CCCCCCCCCCCCCCCCCCC(=O)*; γGlu = O=C(O)[C@H](CCC(=O)[*:2])N[*:1]; AEEA = NCCOCCOCC(=O)O; Aib = CC(C)(N)C(=O)O

What was measured:
[1] = biological target: human GLP-1 receptor (hGLP1R) (human, UniProt P43220 24-463); experiment: cell-based or functional assay
[2] = biological target: human secretin receptor (hSCTR) (human, UniProt P47872 23-440); experiment: cell-based or functional assay
human secretin receptor (hSCTR), sequence (P47872 23-440): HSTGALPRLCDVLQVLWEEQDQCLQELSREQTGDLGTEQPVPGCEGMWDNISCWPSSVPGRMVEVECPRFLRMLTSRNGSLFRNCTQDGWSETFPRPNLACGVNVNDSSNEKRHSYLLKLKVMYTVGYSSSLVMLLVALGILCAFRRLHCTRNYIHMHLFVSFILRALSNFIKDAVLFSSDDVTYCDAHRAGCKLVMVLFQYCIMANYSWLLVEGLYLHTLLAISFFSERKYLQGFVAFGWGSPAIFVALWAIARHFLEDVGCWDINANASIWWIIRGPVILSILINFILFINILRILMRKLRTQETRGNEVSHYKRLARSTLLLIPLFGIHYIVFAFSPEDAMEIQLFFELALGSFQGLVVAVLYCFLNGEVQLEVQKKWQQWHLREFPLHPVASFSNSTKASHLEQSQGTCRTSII

| Binder | pEC50 hGLPR1 [1] | pEC50 hSCTR [2] |
| --- | --- | --- |
| H[Aib]EGTFTSDVSRLK([AEEA-AEEA-γGlu-C20 diacid])E[Aib]AASQRFLEHLV-NH2 [SEQ ID NO: 59] | 10.5 -log M | 6.9 -log M |
| H[Aib]EGTFTSDVSYLK([AEEA-AEEA-γGlu-C20 diacid])ELAAAQRFLEHLV-NH2 [SEQ ID NO: 86] | 9.7 -log M | 5.4 -log M |
| H[Aib]EGTFTSDVSELK([AEEA-AEEA-γGlu-C20 diacid])EFAASQRFLEHLV-NH2 [SEQ ID NO: 8] | 10.3 -log M | 5.8 -log M |
| H[Aib]EGTFTSDVSFLK([AEEA-AEEA-γGlu-C20 diacid])EEAAEQRFLEHLV-NH2 [SEQ ID NO: 56] | 10.4 -log M | 5.1 -log M |
| H[Aib]EGTFTSDVSRLK([AEEA-AEEA-γGlu-C20 diacid])EFAA[Aib]QRFLEHLV-NH2 [SEQ ID NO: 68] | 10 -log M | 5.9 -log M |
| H[Aib]EGTFTSDVSYLK([AEEA-AEEA-γGlu-C20 diacid])EFAAQQRFLEHLV-NH2 [SEQ ID NO: 76] | 10.1 -log M | 5 -log M |
| H[Aib]EGTFTSDVSFLK([AEEA-AEEA-γGlu-C20 diacid])ETAATQRFLEHLV-NH2 [SEQ ID NO: 70] | 10.7 -log M | 7 -log M |
| H[Aib]EGTFTSDVSFLK([AEEA-AEEA-γGlu-C20 diacid])EEAAAQRFLEHLV-NH2 [SEQ ID NO: 63] | 10.3 -log M | 5 -log M |
| H[Aib]EGTFTSDVSYLK([AEEA-AEEA-γGlu-C20 diacid])EEAAAQRFLEHLV-NH2 [SEQ ID NO: 61] | 10.9 -log M | 6.1 -log M |
| H[Aib]EGTFTSDVSRLK([AEEA-AEEA-γGlu-C20 diacid])ETAA[Aib]QRFLEHLV-NH2 [SEQ ID NO: 85] | 9.9 -log M | 5.8 -log M |
| H[Aib]EGTFTSDVSYLK([AEEA-AEEA-γGlu-C20 diacid])ETAAEQRFLEHLV-NH2 [SEQ ID NO: 69] | 10.8 -log M | 4.8 -log M |
| H[Aib]EGTFTSDVSTLK([AEEA-AEEA-γGlu-C20 diacid])EEAASQRFLEHLV-NH2 [SEQ ID NO: 6] | 10.5 -log M | 6.5 -log M |
| H[Aib]EGTFTSDVSTLK([AEEA-AEEA-γGlu-C20 diacid])ELAATQRFLEHLV-NH2 [SEQ ID NO: 67] | 10.3 -log M | 6.4 -log M |
| H[Aib]EGTFTSDVSELK([AEEA-AEEA-γGlu-C20 diacid])ELAATQRFLEHLV-NH2 [SEQ ID NO: 80] | 10.7 -log M | 6.1 -log M |
| H[Aib]EGTFTSDVSTLK([AEEA-AEEA-γGlu-C20 diacid])ELAA[Aib]QRFLEHLV-NH2 [SEQ ID NO: 79] | 10 -log M | 5.5 -log M |
| H[Aib]EGTFTSDVSRLK([AEEA-AEEA-γGlu-C20 diacid])EEAATQRFLEHLV-NH2 [SEQ ID NO: 65] | 11.5 -log M | 7.6 -log M |
| H[Aib]EGTFTSDVSELK([AEEA-AEEA-γGlu-C20 diacid])EEAATQRFLEHLV-NH2 [SEQ ID NO: 55] | 11 -log M | 6.8 -log M |
| H[Aib]EGTFTSDVSRLK([AEEA-AEEA-γGlu-C20 diacid])ETAASQRFLEHLV-NH2 [SEQ ID NO: 71] | 10.2 -log M | 6 -log M |
| H[Aib]EGTFTSDVSVLK([AEEA-AEEA-γGlu-C20 diacid])ETAAAQRFLEHLV-NH2 [SEQ ID NO: 62] | 10 -log M | 5.7 -log M |

| Binder | pEC50 hGLPR1 [1] | pEC50 hSCTR [2] |
| --- | --- | --- |
| H[Aib]EGTFTSDVSFLK([AEEA-AEEA-γGlu-C20 diacid])EFAAAQRFLEHLV-NH2 [SEQ ID NO: 84] | 10.1 -log M | 5.4 -log M |
| H[Aib]EGTFTSDVSELK([AEEA-AEEA-γGlu-C20 diacid])ETAAAQRFLEHLV-NH2 [SEQ ID NO: 57] | 10.6 -log M | 5.3 -log M |
| H[Aib]EGTFTSDVSRLK([AEEA-AEEA-γGlu-C20 diacid])ELAAAQRFLEHLV-NH2 [SEQ ID NO: 9] | 10.2 -log M | 6 -log M |
| H[Aib]EGTFTSDVSRLK([AEEA-AEEA-γGlu-C20 diacid])E[Aib]AAAQRFLEHLV-NH2 [SEQ ID NO: 81] | 10.1 -log M | 7.1 -log M |
| H[Aib]EGTFTSDVSRLK([AEEA-AEEA-γGlu-C20 diacid])EEAAQQRFLEHLV-NH2 [SEQ ID NO: 73] | 11.2 -log M | 7.1 -log M |
| H[Aib]EGTFTSDVSYLK([AEEA-AEEA-γGlu-C20 diacid])EEAASQRFLEHLV-NH2 [SEQ ID NO: 75] | 10.6 -log M | 5.5 -log M |
| H[Aib]EGTFTSDVSTLK([AEEA-AEEA-γGlu-C20 diacid])ELAAEQRFLEHLV-NH2 [SEQ ID NO: 78] | 10.3 -log M | 5.4 -log M |
| H[Aib]EGTFTSDVSFLK([AEEA-AEEA-γGlu-C20 diacid])E[Aib]AASQRFLEHLV-NH2 [SEQ ID NO: 74] | 10.2 -log M | 4.9 -log M |
| H[Aib]EGTFTSDVSELK([AEEA-AEEA-γGlu-C20 diacid])E[Aib]AATQRFLEHLV-NH2 [SEQ ID NO: 82] | 11 -log M | 7 -log M |
| H[Aib]EGTFTSDVSRLK([AEEA-AEEA-γGlu-C20 diacid])E[Aib]AA[Aib]QRFLEHLV-NH2 [SEQ ID NO: 64] | 10.2 -log M | 6.5 -log M |
| H[Aib]EGTFTSDVSRLK([AEEA-AEEA-γGlu-C20 diacid])EEAAAQRFLEHLV-NH2 [SEQ ID NO: 60] | 10.5 -log M | 6.6 -log M |
| H[Aib]EGTFTSDVSELK([AEEA-AEEA-γGlu-C20 diacid])ETAATQRFLEHLV-NH2 [SEQ ID NO: 54] | 10.9 -log M | 6.9 -log M |
| H[Aib]EGTFTSDVSYLK([AEEA-AEEA-γGlu-C20 diacid])ETAAQQRFLEHLV-NH2 [SEQ ID NO: 58] | 10.6 -log M | 6 -log M |
| H[Aib]EGTFTSDVSRLK([AEEA-AEEA-γGlu-C20 diacid])EFAAEQRFLEHLV-NH2 [SEQ ID NO: 72] | 10 -log M | 6 -log M |
| H[Aib]EGTFTSDVSTLK([AEEA-AEEA-γGlu-C20 diacid])EEAA[Aib]QRFLEHLV-NH2 [SEQ ID NO: 77] | 10.7 -log M | 5.8 -log M |
| H[Aib]EGTFTSDVSYLK([AEEA-AEEA-γGlu-C20 diacid])EFAASQRFLEHLV-NH2 [SEQ ID NO: 66] | 10.4 -log M | 5.5 -log M |
| H[Aib]EGTFTSDVSFLK([AEEA-AEEA-γGlu-C20 diacid])EEAAQQRFLEHLV-NH2 [SEQ ID NO: 83] | 10.5 -log M | 5.8 -log M |
| H[Aib]EGTFTSDVSELK([AEEA-AEEA-γGlu-C20 diacid])E[Aib]AA[Aib]QRFLEHLV-NH2 [SEQ ID NO: 7] | 10.2 -log M | 6 -log M |
